In patent publication US20220411483A1 (Chugai, published 2022):
Numbering of substitutions follows the chain as printed.

T1: FcγRIIa R type extracellular domain with C-terminal His tag (human, UniProt P12318 34-217)
T1 construct: extracellular domain; also called FcgRIIaR
T1 sequence (looked up): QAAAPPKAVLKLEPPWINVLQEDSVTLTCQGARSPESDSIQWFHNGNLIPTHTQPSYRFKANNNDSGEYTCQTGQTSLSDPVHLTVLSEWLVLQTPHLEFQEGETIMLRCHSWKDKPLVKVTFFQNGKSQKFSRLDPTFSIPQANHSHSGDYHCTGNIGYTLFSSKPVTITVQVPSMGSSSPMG

T2: FcγRIIb extracellular domain with C-terminal His tag (human, UniProt P31994 43-217)
T2 construct: extracellular domain; also called FcgRIIb
T2 sequence (looked up): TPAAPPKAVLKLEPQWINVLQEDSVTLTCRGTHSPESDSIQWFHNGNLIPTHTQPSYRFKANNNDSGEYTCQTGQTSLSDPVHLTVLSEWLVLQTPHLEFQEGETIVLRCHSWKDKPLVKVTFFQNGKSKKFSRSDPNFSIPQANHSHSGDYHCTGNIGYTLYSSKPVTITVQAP

B1: IL6R-BP233/IL6R-L (antibody, human IgG1, kappa, name in EU numbering)
heavy: QVQLQESGPGLVKPSETLSLTCAVSGHSISHDHAWSWVRQPPGEGLEWIGFISYSGITNYNPSLQGRVTISRDNSKNTLYLQMNSLRAEDTAVYYCARSLARTTAMDYWGEGTLVTVSSASTKGPSVFPLAPSSKSTSGGTAALGCLVKDYFPEPVTVSWNSGALTSGVHTFPAVLQSSGLYSLSSVVTVPSSSLGTQTYICNVNHKPSNTKVDKKVEPKSCDKTHTCPPCPAPEYLGDDSVFLFPPKPKDTLMISRTPEVTCVVVDVSHEDGEVKFNWYVDGVEVHNAKTKPREEQYNSTYRVVSVLTVLHQDWLNGKEYKCKVSNKALPKPIEKTISKAKGQPREPQVYTLPPSRDELTKNQVSLTCLVKGFYPSDIAVEWESNGQPENNYKTTPPVLDSDGSFFLYSKLTVDKSRWQQGNVFSCSVMHEALHNHYTQESLSLSP
light: not shown
notes: IgG1; alterations on IL6R-B3, EU numbering
B2: IL6R-BP182/IL6R-L (antibody, human IgG1, kappa, name in EU numbering)
heavy: B1 heavy with E235D, Y236L, D239G, Y298D
light: not shown
notes: as for B1
B3: IL6R-2B261/IL6R-L (antibody, human IgG1, kappa, name in EU numbering)
heavy: B1 heavy with E235D, Y236L, D239G, G273P, Y298D, K332A
light: not shown
notes: as for B1
B4: IL6R-BP209/IL6R-L (antibody, human IgG1, kappa, name in EU numbering)
heavy: B1 heavy with Y236L, H270D, K328A, K332R
light: not shown
notes: as for B1
B5: IL6R-BP202/IL6R-L (antibody, human IgG1, kappa, name in EU numbering)
heavy: B1 heavy with Y236L, K328A, K332R
light: not shown
notes: as for B1
B6: IL6R-BP192/IL6R-L (antibody, human IgG1, kappa, name in EU numbering)
heavy: B1 heavy with E235D, Y236L, D239G, H270D, Y298D
light: not shown
notes: as for B1
B7: IL6R-BP246/IL6R-L (antibody, human IgG1, kappa, name in EU numbering)
heavy: B1 heavy with E235D, Y236L, S269Q, H270D, Y298D, K328A, K332R
light: not shown
notes: as for B1
B8: IL6R-BP220/IL6R-L (antibody, human IgG1, kappa, name in EU numbering)
heavy: B1 heavy with E235D, Y236L, H270D, Y298D
light: not shown
notes: as for B1
B9: IL6R-BP203/IL6R-L (antibody, human IgG1, kappa, name in EU numbering)
heavy: B1 heavy with Y236L, K332R
light: not shown
notes: as for B1
B10: IL6R-BP187/IL6R-L (antibody, human IgG1, kappa, name in EU numbering)
heavy: B1 heavy with D239G, K328A
light: not shown
notes: as for B1
B11: IL6R-BP191/IL6R-L (antibody, human IgG1, kappa, name in EU numbering)
heavy: B1 heavy with E235D, Y236L, D239G, H270D, K328A
light: not shown
notes: as for B1
B12: IL6R-BP189/IL6R-L (antibody, human IgG1, kappa, name in EU numbering)
heavy: B1 heavy with Y236L, H270D, K328A
light: not shown
notes: as for B1
B13: IL6R-BP084/IL6R-L (antibody, human IgG1, kappa, name in EU numbering)
heavy: B1 heavy with Y236L, D239G, G273P, V325M
light: not shown
notes: as for B1
B14: IL6R-BP243/IL6R-L (antibody, human IgG1, kappa, name in EU numbering)
heavy: B1 heavy with E235D, H270D, K332R
light: not shown
notes: as for B1
B15: IL6R-BP180/IL6R-L (antibody, human IgG1, kappa, name in EU numbering)
heavy: B1 heavy with Y236L
light: not shown
notes: as for B1
B16: IL6R-BP204/IL6R-L (antibody, human IgG1, kappa, name in EU numbering)
heavy: B1 heavy with E235D, Y236L, D239G, K328A, K332R
light: not shown
notes: as for B1
B17: IL6R-BP211/IL6R-L (antibody, human IgG1, kappa, name in EU numbering)
heavy: B1 heavy with E235D, Y236L, D239G, H270D, K328A, K332R
light: not shown
notes: as for B1
B18: IL6R-BP223/IL6R-L (antibody, human IgG1, kappa, name in EU numbering)
heavy: B1 heavy with H270D, K328A, K332R
light: not shown
notes: as for B1
B19: IL6R-BP195/IL6R-L (antibody, human IgG1, kappa, name in EU numbering)
heavy: B1 heavy with E235D, H270D, Y298D, K328A
light: not shown
notes: as for B1
B20: IL6R-BP208/IL6R-L (antibody, human IgG1, kappa, name in EU numbering)
heavy: B1 heavy with E235D, Y236L, H270D, K332R
light: not shown
notes: as for B1
B21: IL6R-BP201/IL6R-L (antibody, human IgG1, kappa, name in EU numbering)
heavy: B1 heavy with E235D, Y236L, K332R
light: not shown
notes: as for B1
B22: IL6R-BP210/IL6R-L (antibody, human IgG1, kappa, name in EU numbering)
heavy: B1 heavy with Y236L, H270D, K332R
light: not shown
notes: as for B1

Target: T3, FcγRIa extracellular domain with C-terminal His tag (human, UniProt P12314 16-292)
T3 construct: also called FcgRIa
Assay: SPR (Biacore), FcgR as analyte

T3 sequence (P12314 16-292): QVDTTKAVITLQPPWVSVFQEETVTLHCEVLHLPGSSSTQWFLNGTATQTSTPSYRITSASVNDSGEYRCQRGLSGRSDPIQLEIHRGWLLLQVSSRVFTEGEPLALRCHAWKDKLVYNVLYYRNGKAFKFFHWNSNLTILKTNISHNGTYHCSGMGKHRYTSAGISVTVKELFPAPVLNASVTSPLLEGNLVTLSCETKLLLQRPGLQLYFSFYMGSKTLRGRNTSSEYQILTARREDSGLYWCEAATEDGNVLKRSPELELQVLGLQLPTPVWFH

Row | Kd [nM] | Binder
1 | 70 | B1
2 | 10 | B2
3 | 9 | B3
4 | 39 | B4
5 | 95 | B5
6 | 6.6 | B6
7 | 8 | B7
8 | 20 | B8
9 | 180 | B9
10 | 25 | B10
11 | 4 | B11
12 | 42 | B12
13 | 7 | B13
14 | 3 | B14
15 | 98 | B15

Target: T1, FcγRIIa R type extracellular domain …
Assay: SPR (Biacore), FcgR as analyte

Row | Kd [nM] | Binder
16 | 4500 | B16
17 | 4100 | B17
18 | 600 | B18
19 | 910 | B19
20 | 2600 | B6
21 | 990 | B9
22 | 850 | B20
23 | 2800 | B10
24 | 3000 | B11
25 | 840 | B21
26 | 1000 | B22

Target: T2, FcγRIIb extracellular domain with …
Assay: SPR (Biacore), FcgR as analyte

Row | Kd [nM] | Binder
27 | 1000 | B3
28 | 50 | B19
29 | 51 | B4
30 | 40 | B21
31 | 500 | B13
